Reference: paper PMC8639797 (Nature, 2021)

Target: T1, trx-ALKAL2-AD^RC (K94E/K96E/K99E/H100E) (human, UniProt Q6UX46 77-152, K94E | K96E | K99E | H100E)
T1 sequence (looked up): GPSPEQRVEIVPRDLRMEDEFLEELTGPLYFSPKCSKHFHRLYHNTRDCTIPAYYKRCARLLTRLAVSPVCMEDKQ
Test: BLI

B1: site-specifically biotinylated ALK-ECR^ABR (from Fc-ALKavi) (domain or fragment, human)
chain: QTPIFDPTVHWLFTTCGASGPHGPTQAQCNNAYQNSNLSVEVGSEGPLKGIQIWKVPATDTYSISGYGAAGGKGGKNTMMRSHGVSVLGIFNLEKDDMLYILVGQQGEDACPSTNQLIQKVCIGENNVIEEEIRVNRSVHEWAGGGGGGGGATYVFKMKDGVPVPLIIAAGGGGRAYGAKTDTFHPERLENNSSVLGLNGNSGAAGGGGGWNDNTSLLWAGKSLQEGATGGHSCPQAMKKWGWETRGGFGGGGGGCSSGGGGGGYIGGNAASNNDPEMDGEDGVSFISPLGILYTPALKVMEGHGEVNIKHYLNCSHCEVDECHMDPESHKVICFCDHGTVLAEDGVSCIVSP
modifications: biotin on the C-terminal biotin acceptor peptide (co-expressed BirA)
  binding result: binds
